From US20230346885A1 (published 2023)
Positions count from the first letter of the chain named.

How the values were obtained:
Experiment in all cases: binding, other
ASCL2 peptide on HLA [1] = biological target: T1, ASCL2 peptide on HLA (human)
T1 peptide: LLAEHDAVRNAL

ACTL8 peptide on HLA [2] = biological target: T2, ACTL8 peptide on HLA (human)
T2 peptide: ALDESNTYQL

ACTL8 peptide on HLA [3] = biological target: T3, ACTL8 peptide on HLA (human)
T3 peptide: RCLFQLETV

ACTL8 peptide on HLA [4] = biological target: T4, ACTL8 peptide on HLA (human)
T4 peptide: SLYASGLLTGV

ASCL2 peptide on HLA [5] = biological target: T5, ASCL2 peptide on HLA (human)
T5 peptide: LLAEHDAVRNA

BRDT peptide on HLA = biological target: T6, BRDT peptide on HLA (human)
T6 peptide: EMFPKFTEV

B1: TCR of SEQ ID NOs 293 and 294 (TCR, V domains shown)
Valpha: KQEVTQIPAALSVPEGENLVLNCSFTDSAIYNLQWFRQDPGKGLTSLLLIQSSQREQTSGRLNASLDKSSGRSTLYIAASQPGDSATYLCAVRQHTGRRALTFGSGTRLQVQP
Vbeta: NAGVTQTPKFRILKIGQSMTLQCTQDMNHNYMYWYRQDPGMGLKLIYYSVGAGITDKGEVPNGYNVSRSTTEDFPLRLELAAPSQTSVYFCASSYSPENTEAFFGQGTRLTVV
binding result (ASCL2 peptide on HLA [1]): recognises

B2: TCR of SEQ ID NOs 295 and 296 (TCR, V domains shown)
Valpha: B1 Valpha
Vbeta: NAGVTQTPKFRILKIGQSMTLQCTQDMNHNYMYWYRQDPGMGLRLIHYSVGAGITDQGEVPNGYNVSRSTTEDFPLRLLSAAPSQTSVYFCASSYSPEADIQYFGAGTRLSVL
binding result (ASCL2 peptide on HLA [1]): recognises

B3: TCR of SEQ ID NOs 279 and 280 (TCR, V domains shown)
Valpha: KQEVTQIPAALSVPEGENLVLNCSFTDSAIYNLQWFRQDPGKGLTSLLLIQSSQREQTSGRLNASLDKSSGRSTLYIAASQPGDSATYLCATGFQKLVFGTGTRLLVSP
Vbeta: NAGVTQTPKFQVLKTGQSMTLQCAQDMNHNSMYWYRQDPGMGLRLIYYSASEGTTDKGEVPNGYNVSRLNKREFSLRLESAAPSQTSVYFCASTLGRLLTEAFFGQGTRLTVV
binding result (ACTL8 peptide on HLA [2]): recognises

B4: TCR of SEQ ID NOs 291 and 292 (TCR, V domains shown)
Valpha: B3 Valpha with T92V, G93D, F94A, Q95D, V98I, L106Q, S108F
Vbeta: NAGVTQTPKFRILKIGQSMTLQCTQDMNHEYMYWYRQDPGMGLRLIHYSVGEGTTAKGEVPDGYNVSRLKKQNFLLGLESAAPSQTSVYFCASREVGRDEHFFGPGTRLTVL
binding result (ACTL8 peptide on HLA [3]): recognises

B5: TCR of SEQ ID NOs 275 and 276 (TCR, V domains shown)
Valpha: KQEVTQIPAALSVPEGENLVLNCSFTDSAIYNLQWFRQDPGKGLTSLLLIQSSQREQTSGRLNASLDKSSGRSTLYIAASQPGDSATYLCAVRGYNKLIFGAGTRLAVHP
Vbeta: NAGVTQTPKFRILKIGQSMTLQCTQDMNHNYMYWYRQDPGMGLKLIYYSVGAGITDKGEVPNGYNVSRSTTEDFPLRLLSAAPSQTSVYFCASSYSPIVGAFFGQGTRLTVV
binding result (ACTL8 peptide on HLA [2]): recognises

B6: TCR of SEQ ID NOs 281 and 282 (TCR, V domains shown)
Valpha: B5 Valpha
Vbeta: NAGVTQTPKFRVLKTGQSMTLLCAQDMNHEYMYWYRQDPGMGLRLIHYSVGEGTTAKGEVPDGYNVSRLKKQNFLLGLESAAPSQTSVYFCASSFDVTEAFFGQGTRLTVV
binding result (ACTL8 peptide on HLA [4]): recognises

B7: TCR of SEQ ID NOs 277 and 278 (TCR, V domains shown)
Valpha: B5 Valpha
Vbeta: NAGVTQTPKFRILKIGQSMTLQCAQDMNHNYMYWYRQDPGMGLKLIYYSVGAGITDKGEVPNGYNVSRSTTEDFPLRLELAAPSQTSVYFCASTRDTYYGYTFGSGTRLTVV
binding result (ACTL8 peptide on HLA [2]): recognises

B8: TCR of SEQ ID NOs 309 and 310 (TCR, V domains shown)
Valpha: KQEVTQIPAALSVPEGENLVLNCSFTDSAIYNLQWFRQDPGKGLTSLLLIQSSQREQTSGRLNASLDKSSGRSTLYIAASQPGDSATYLCAVRPAGQNFVFGPGTRLSVLP
Vbeta: NAGVTQTPKFQVLKTGQSMTLQCAQDMNHNSMYWYRQDPGMGLRLIYYSASEGTTDKGEVPNGYNVSRLNKREFSLRLESAAPSQTSVYFCASSEALWGGNTEAFFGQGTRLPVV
binding result (ASCL2 peptide on HLA [5]): recognises

B9: TCR of SEQ ID NOs 283 and 284 (TCR, V domains shown)
Valpha: KQEVTQIPAALSVPEGENLVLNCSFTDSAIYNLQWFRQDPGKGLTSLLLIQSSQREQTSGRLNASLDKSSGRSTLYIAASQPGDSATYLCAVKKDAGNKLTFGGGTRVLVKP
Vbeta: NAGVTQTPKFRVLKTGQSMTLLCAQDMNHEYMYWYRQDPGMGLRLIYYSASEGTTDKGEVPNGYNVSRLNKREFSLRLESAAPSQTSVYFCASSDSRRGGLLLYNSPLHFGNGTRLTVT
binding result (ACTL8 peptide on HLA [4]): recognises

B10: TCR of SEQ ID NOs 285 and 286 (TCR, V domains shown)
Valpha: B8 Valpha with P94A, Q97N, N98K, F99L, V100T, P103G, L107V, S108L, L110K
Vbeta: B9 Vbeta
binding result (ACTL8 peptide on HLA [4]): recognises

B11: TCR of SEQ ID NOs 289 and 290 (TCR, V domains shown)
Valpha: KQEVTQIPAALSVPEGENLVLNCSFTDSAIYNLQWFRQDPGKGLTSLLLIQSSQREQTSGRLNASLDKSSGRSTLYIAASQPGDSATYLCAVDSSGSRLTFGEGTQLTVNP
Vbeta: NAGVTQTPKFQVLKTGQSMTLQCAQDMNHEYMYWYRQDPGMGLRLIHYSVGAGITDQGEVPNGYNVSRSTTEDFPLRLLSAAPSQTSVYFCASRLLGGSGYTFGSGTRLTVV
binding result (ACTL8 peptide on HLA [3]): recognises

B12: TCR of SEQ ID NOs 307 and 308 (TCR, V domains shown)
Valpha: B11 Valpha with D93T, S94D, G96W, S97G, R98K, T100Q, E103A, L107V, T108V, N110T
Vbeta: NAGVTQTPKFQVLKTGQSMTLQCAQDMNHNSMYWYRQDPGMGLRLIYYSVGAGITDQGEVPNGYNVSRSTTEDFPLRLLSAAPSQTSVYFCASSRGPINYGYTFGSGTRLTVV
binding result (ASCL2 peptide on HLA [5]): recognises

B13: TCR of SEQ ID NOs 287 and 288 (TCR, V domains shown)
Valpha: KQEVTQIPAALSVPEGENLVLNCSFTDSAIYNLQWFRQDPGKGLTSLLLIQSSQREQTSGRLNASLDKSSGRSTLYIAASQPGDSATYLCAVNYYNQGGKLIFGQGTELSVKP
Vbeta: NAGVTQTPKFQVLKTGQSMTLQCAQDMNHNSMYWYRQDPGMGLRLIYYSASEGTTDKGEVPNGYNVSRLNKREFSLRLESAAPSQTSVYFCASTPTYWDSYEQYFGPGTRLTVT
binding result (ACTL8 peptide on HLA [3]): recognises

B14: TCR of SEQ ID NOs 311 and 312 (TCR, V domains shown)
Valpha: B13 Valpha with N93T, Y94G, Y95G, N96T, Q97S, G98Y, I102T, E108I, S110T, K112H
Vbeta: NAGVTQTPKFRILKIGQSMTLQCTQDMNHNYMYWYRQDPGMGLKLIYYSVGAGITDKGEVPNGYNVSRSTTEDFPLRLELAAPSQTSVYFCASSYWAGVLTEAFFGQGTRLTVV
binding result (BRDT peptide on HLA): recognises

B15: TCR of SEQ ID NOs 305 and 306 (TCR, V domains shown)
Valpha: KQEVTQIPAALSVPEGENLVLNCSFTDSAIYNLQWFRQDPGKGLTSLLLIQSSQREQTSGRLNASLDKSSGRSTLYIAASQPGDSATYLCAVRSSTDSWGKFQFGAGTQVVVTP
Vbeta: NAGVTQTPKFQVLKTGQSMTLQCAQDMNHEYMSWYRQDPGMGLRLIHYSVGAGITDQGEVPNGYNVSRSTTEDFPLRLLSAAPSQTSVYFCASSYSAGLTGELFFGEGSRLTVL
binding result (ASCL2 peptide on HLA [5]): recognises

B16: TCR of SEQ ID NOs 297 and 298 (TCR, V domains shown)
Valpha: KQEVTQIPAALSVPEGENLVLNCSFTDSAIYNLQWFRQDPGKGLTSLLLIQSSQREQTSGRLNASLDKSSGRSTLYIAASQPGDSATYLCAVLTNDYKLSFGAGTTVTVRA
Vbeta: NAGVTQTPKFRVLKTGQSMTLLCAQDMNHEYMYWYRQDPGMGLRLIHYSVGEGTTAKGEVPDGYNVSRLKKQNFLLGLESAAPSQTSVYFCASSYSGFDSPLHFGNGTRLTVT
binding result (ASCL2 peptide on HLA [1]): recognises
